Source: the DeepSol protein solubility set

Test: soluble on expression in E. coli; label from the status in PepcDB or PDB records

| Sequence | soluble on expression in E. coli |
| --- | --- |
| MSLKIAITGASGFVGSHLSSQFGGSHTLLPLGRRELSDPTKLSSLLEGVDWIINLAGAPIIAKWSESYKKVLYSSRIETTRSLLLALKECPTKPSLFTSTSAIGIYDNQGTYAEGDLALAQDFLGKLAKDWEEEALKAQDLGIRTVVFRFGVVLGKGGGMMEKLRLPFSLGLGGVIGDGKQKFSWIHLHDIAKAMEFAWSTPSLSGIYNLTAPSPTTNEAFTKLYGSLIHRPTLLPVPLWALQILFGEGAKVLSDGQAAIPERLLQAGFEFEYPTLEKALKEIISEGHHHHHH | soluble |
| MREAVIVAGARTPIGKAKRGSLKTVRPDDLGALVVKETLKRANYEGPIDDLIFGCAMPEAEQGLNMARNIGGLAGLSYDVPAITINRYCSSGLQSIAYGAERIMLGHSEAVLSGGAESMSLVPMMGHVVRPNSRLVEAAPEYYMGMGHTAEQVAVKYGISREEQDAFAVRSHQRAAKALAAGNFADETVSVDVTLRTVGANNKLQEETITFAQDEGVRAETTLDILGKLRPAFNVRGSVTAGNSSQMSDGAASVLLMDREKAVSDGMKPLAKFRSFAVAGVPPEVMGIGPIAAIPKALKLAGLELSDIGLFELNEAFASQSIQVIRELGLDEEKVNVNGGAIALGHPLGCTGAKLTLSLIHEMKRRNEQFGIVTMCIGGGMGAAGVFELL | not soluble |
| MSLQRYFIELTKQQIEEAPTFSITGEEVHHIVNVMRMNEGDQIICCSQDGFEAKCELQSVSKDKVSCLVIEWTNENRELPIKVYIASGLPKGDKLEWIIQKGTELGAHAFIPFQAARSVVKLDDKKAKKKRERWTKIAKEAAEQSYRNEVPRVMDVHSFQQLLQRMQDFDKCVVAYEESSKQGEISAFSAIVSSLPKGSSLLIVFGPEGGLTEAEVERLTEQDGVTCGLGPRILRTETAPLYALSAISYQTELLRGDQEGGSHHHHHH | soluble |
| METPKLSVEAIEKGTVIDHIPAGRGLTILRQFKLLHYGNAVTVGFNLPSKTQGSKDIIKIKGVCLDDKAADRLALFAPEAVVNTIDNFKVVQKRHLNLPDEIAEVFRCPNTNCAGHGEPVKSRFYVKKHNGQTRLKCHYCEKTYSRDSVAEA | not soluble |
| MTIKRVGILGAGKVGIVLAGLALKAGYEVRISGSGSVDKIDLTISTLVPGAIASENAEVVANSDIIILAIPLSRYKNIDPTLLKGKLVIDAMNYWWETDGIREEVLDPTLTSSEQVQNYFKDSTIVKTFNHMGYHNLQEEALPKLEHHHHHH | soluble |
| EADYKQATALELATLVREKKVTSEELVKIALAITKRENPTLNAVITLREEAALTEAKALQDTGQPFLGVPLLLKGLGQSLKGESNTNGFGFLQDQVAGGTSTFVKALQNAGFIIIGQTNYPELGWKNISDSKLYGVSVNPWNPNHYSGGSSGGAGASVAAAFVPIASGSDAGGSIRIPASWTGTVGLKPSRGVIIGNSNSAKGQTVHFGLSRTVADTNALFETLLTKKDLPAGHLSQAQPIAYTTESPAGTPISAEAKEAVAEAVAFLKDQGYTLVEVKHPVDGERLMKNYYTVAAGSAGIADFMARQKLKRPLERNDVELLTWALFQTGKNITSEETTAAWTDIALQAQAMDEFYQQYPILLTPTTAATAPSIDNPLLKPEHAAQMEKIDQLSPAEQKQLIYDQWLTAFTYTPFTQQANLFGHPALSVPTYVSKEGLPLGIQFNSALNEDRTLLQLGALFENNHK | not soluble |
| MGSDKIHHHHHHMERLAQPSRFLQRKLFEVNLLKPVTVEKEAPIGEIRRILRDTGSRIVLVVNGEGRLEGVIYRSSVILVTSRKSEAKALDIMEEPAVVLKPSYSLEEAVFSMLKFDEWYAPVVNDANRLVGVLGLETPIRLLLEAGFYRGYTASDAMTRDVEYVLEGDSLTRVWEIMVERRYAGVPVVDQRMVVRGIVTQYDLIRKGYTRLGLESEAPPHRVRVESVMTRSVIYVAESDNLEDVARIMLDRGVGRVPVVKSRDSRVLTGIIDREDLVRLYFKSRGRASL | not soluble |
| MAHHHHHHMYYADVDYEVPSRVVQLTDATFDTIVMDPTKDVFVLYCVTWSRHCRSAVKLWADLSISQFKRPTADTFVAALIDAEAFPETAKRMGVKSYPTMLFYTRLEKATPLEYNGQGLLPLLDSFVFQNS | not soluble |
| MGSDKIHHHHHHMIAAIDIGTESARLMFKSNGEWKVLKKSYRIFFPSPEAAEQDPNEIFSAVFDLLKQVPNEDEVLYVGMSSVFHSIIGLDENLNPVTPLLNWADRRSFREKEELEKKYGVRFFYEKTACPLHPMYWPSKILWMKKNSNAKKFCSIKAYIVNKMTREFVEELSLASGTGMMNIHSLEWDGEILEITGVRKEDLPEIKSPYTQLRVKDEIAKELGFKKVYLVLGGGDGVMTNVGVNVMDPDSATVTIGTSGAFRVVMDRPVIDREGISTWCYLIDEENYVLGGAINNGGIVLMWLRDIMKFKDYNDIIEEAKESPAGANGLVFLPFLNGERAPHWRERYRGVLVGLTSSHRRSDIARAALEGICFRIKDIHNAVKRVGSVDPNRIVATGGFTSSPYWVQLLSDVLGKDIIVTNVENPSAFGAYVMALKSLGEDVEGFIEKEVRVERVFHPDSERNAVYERLYNDYKFLYEKLVDYYYKE | not soluble |
| MGSDKIHHHHHHMSLEAPDLLRIRALPLFEAVNDGAFDRLMRGAFLQRFPRGSQLTTQGQPDNFLFVLLEGAIELEGSSSDRESTLALLWPSASLCLASIVLDGPSLMTARTTKGSLILMVPGDAFRQALEEDAGLGRAVAEELAGCFSGAVRSLKNNKLRTARERLVSYLLAQHQRQGGGAVVKLPCRKRVLASLLGMTPENLSRAFASLGPHGVEIDGSTVTLREPEGLAQLARPDPMIDNPIGESFSQAERERRRGGRTAIAAH | not soluble |
| MAGAAAAVAAGAAAGAAAAAVSVAAPGRASAPPPPPPVYCVCRQPYDVNRFMIECDICKDWFHGSCVGVEEHHAVDIDLYHCPNCAVLHGSSLMKKRRNWHRHDYTEIDDGSKPVQAGTRTFIKELRSRVFPSADEIIIKMHGSQLTQRYLEKHGFDVPIMVPKLDDLGLRLPSPTFSVMDVERYVGGDKVIDVIDVARQADSKMTLHNYVKYFMNPNRPKVLNVISLEFSDTKMSELVEVPDIAKKLSWVENYWPDDSVFPKPFVQKYCLMGVQDSYTDFHIDFGGTSVWYHVLWGEKIFYLIKPTDENLARYESWSSSVTQSEVFFGDKVDKCYKCVVKQGHTLFVPTGWIHAVLTSQDCMAFGGNFLHNLNIGMQLRCYEMEKRLKTPDLFKFPFFEAICWFVAKNLLETLKELREDGFQPQTYLVQGVKALHTALKLWMKKELVSEHAFEIPDNVRPGHLIKELSKVIRAIEEENGKPVKSQGI | soluble |
| DREELDKQLRHERERFRLLVDAVENYAIFLLDPDGLIQSWNVGAKQLTQYEESDILGEHVSTFHTEKQVADGIPEQLLQEAEECGKAIDRGLRVRKDGSTFWADVTVTALQENSDARGFAKVIKDIT | not soluble |
| VTVGDQNGMGPSSGYVTRITNDAREDDMENNMKEVSSMIGNLRNMAIDMGNEIGSQNRQVDRIQQKAESNESRIDEANKKATKLLKN | soluble |
| FDFKAGEEVLARWTDCRYYPAKIEAINKEGTFTVQFYDGVIRCLKRMHIKAMPEDAKGQDWIALVKA | soluble |
| MGSDKIHHHHHHHPCARLSVRMSSTGIDRKGVLANRVAVVTGSTSGIGFAIARRLARDGAHVVISSRKQQNVDRAMAKLQGEGLSVAGIVCHVGKAEDREQLVAKALEHCGGVDFLVCSAGVNPLVGSTLGTSEQIWDKILSVNVKSPALLLSQLLPYMENRRGAVILVSSIAAYNPVVALGVYNVSKTALLGLTRTLALELAPKDIRVNCVVPGIIKTDFSKVFHGNESLWKNFKEHHQLQRIGESEDCAGIVSFLCSPDASYVNGENI | not soluble |
| MGSDKIHHHHHHMQLPFIAVDYVISVGLCAASTNPSQDKRIKKITVLAVSGKGDLPISFIENQALLDEAAMLTCMAYVDLNPIRAQLADTPEQSDHTSIQLRIRAALKGEQPKNLLPFIVNERDNQPNGIAFLLSDYLELVDDTGRIIRSDKRGAISENSAKLLARLNIPHDNWLKLTTEFGKLFRGPVGTLQELTDYCEHLEKRRRHFAKCCLHFHSN | not soluble |
| MKDWFMNLLYYLKRPFIRLSRFRYRCGYGVHSPFAFSLITDVIYEKMPYYAYDLLKVEQKKRITTQRWEKGIPRINRLLFRLVNKVQPATIIEVGQPSAASLYLQSAKPSAGYLFASDLSELFLDADTPVDFLYLNDYRNPALLEEVFNICSRRTTPNSLFVVHGICYSKAMKNLWKQLQNDERVGITFDLYDAGLLFFDTTKIKQHYIVNF | not soluble |
| MPGTPIPMGRQTHRAHSASGFYTPHVSKLKTNYDREFQKFLRSAKTAIDHLDKIEMQILCPLKKKIKRFHKESNTLDVYFRSQTYWRSFYKELMNRSDDVMDCFRFEDLRDVAAVVESHRLPDVLVSFVTQQLMEWRELFKDVEWMRKFRELSHNMDSLKTKRIEHVLRQDIIREIGVAIDVHNLKIDDFRSHSNNTERVAEGIAHAIEESKNKQDAGNQLKHVPVLSKQMSVRRWYREHYGDPQALSDESDEESLSDGDNSSLFVGTADSSSRDASDISTEEVVTENEFDEFFN | not soluble |
| MAHHHHHHMPLPPVEDAPNSMARRHYLVERNRLRVKKYEPTRQAFEEETVKLSKQRVEQRVAMLNSWKSSVPLHTDTTRPLPGAARRQKEKDEPAAKHINLQILDEDAALKRERRALLRADILQQKKDREEYLAKWRANEKAYDSALLATNAEFARQMQEQERQAAVATKQYMDMMRASNLKELEAKRAKQREKEEADVAALRTMQENLRLKMEADERRAKDMKRLMQIENEENHSLFKKKQAEDKAREDAWIRTMMEHNAALAERERREAEQKRQQFKADFEDTIAKQKEFRRTHDYDEPQELIRKRNEEAAASAVLIRQEERLRNNEQRKQYREELMKQMREKYEWQLSHLDGV | not soluble |
| MHHHHHHGKPIPNPLLGLDSTENLYFQGIDPFTKAYAFGFPKIGEKREFKKALEDFWKGKITEEQFEEEMNKLRMYMVENYRKNVDVIPSNELSYYDFVLDTAVMVGAVPERFGEYRGLSTYFDMARGGKALEMTKFFNTNYHYLVPEIETEEFYLLENKPLEDYLFFKSKGIETAPWVIGPFTFLYLSKRNGEWIRRPNQMEKLLESLVSVYKEVFEKLVENGCKEILVNEPAFVCDLEKAHWDLILNVYRELSEFPLTVFTYYDSVSDYEACVSLPVKRLHFDFVSNEENLKNLEKHGFPEDKKLVAGVINGRQPWKVDLRKVASLVEKLGASAISNSCPLFHLPVTLELENNLPGGLKEKLAFAKEKLEELKMLKDFLEGKTFDLPNVSFEDFAVDLQAVERVRNLPEDSFRREKEYTERDRIQRERLNLPLFPTTTIGSFPQTPEVRKMRSKYRKGEISKEEYEAFIKEQIKKAIELQEEIGLDVLVHGEFERTDMVEFFAEKLNGIATTQNGWVLSYGSRCYRPPIIYGTVTRPEPMTLKEITYAQSLTEKPVKGMLTGPVTIMSWSYYREDIPEREIAYQIALAINEEVKDLEEAGIKIVQIDEPAFREKAPIKKSKWPEYFEWAINAFNLAANARPETQIHAHMCYSDFNEIIEYIHQLEFDVISIEASRSKGEIISAFENFKGWIKQIGVGVWDIHSPAVPSINEMREIVERVLRVLPKELIWINPDCGLKTRNWDEVIPSLRNMVALAKEMREKFES | soluble |
| MATCLVEFAKSPPVFSPGEKVTGNVKMTIPDDEFKARKVRMEMIGKAYTYWEGNVRNNHTKIKNGDIARVRHNCADHKGKIVYCRFETIVWKSDGAKNDMPSGPHIFPFSFQLPHWAPPSFEGDLGFIRYFIKVEIDRPWKFDDKFITCLTVLPNIDLRLIPNSQVPSKKHVCEEFGAVLWKNGLVRMELRLPKQGFVCGENIPVTMIVDNKTSKSFKKISLRLVQRVTYTGFRDGFVNSHSQPCIGNEKEKITYATRLNAQTRVEERQISETNIDIKIDKNEKQEVEKPIPLPPLPPSTKTCEIIDVEYFLKVKMSTSGALKSAVKLELAFIIGTMPIDPERKYEYKKSVFGFAATSLKNRDVQKFAPLYPVFKFDE | not soluble |
